In the Human Domainome abundance scans (Beltran et al. 2025):
± gives the uncertainty stated by the source.

B1: Telomeric repeat-binding factor 2, residues 489 to 542; numbered along this chain, Q15554 (parent)
chain: KQKWTVEESEWVKAGVQKYGEGNWAAISKNYPFVNRTAVMIKDRWRTMKRLGMN

Variants of: B1
Assay: abundance fitness (aPCA) (normalised: wild type 0, dead -1); higher = more abundant; growth selection in yeast, the domain comes from the species named
Details: Homo sapiens

Row | Variant | abundance fitness
1 | M40W | 0.066 ± 0.071
2 | M40N | -0.53 ± 0.18
3 | M40Y | -0.869 ± 0.39
4 | M40G | -0.406 ± 0.061
5 | M40R | -0.663 ± 0.07
6 | M40D | 0.106 ± 0.057
7 | M40C | 0.169 ± 0.095
8 | M40L | -0.508 ± 0.057
9 | M40H | -0.119 ± 0.23
10 | N23V | -0.27 ± 0.092
11 | N23W | -0.39 ± 0.26
12 | N23Y | -0.539 ± 0.28
13 | A26D | -0.266 ± 0.14
14 | A26V | -0.025 ± 0.043
15 | A26N | -0.656 ± 0.22
16 | A26E | -0.18 ± 0.12
17 | A26K | -0.005 ± 0.11
18 | A26L | -0.022 ± 0.082
19 | A26Y | -0.288 ± 0.15
20 | A26Q | 0.078 ± 0.15
21 | A26M | -0.493 ± 0.28
22 | A26G | -0.792 ± 0.11
23 | A26S | -0.068 ± 0.053
24 | A26I | -0.177 ± 0.28

Row | Variant | abundance fitness
25 | A26T | 0.065 ± 0.22
26 | A26C | 0.047 ± 0.14
27 | A26W | -0.545 ± 0.16
28 | F33R | -0.845 ± 0.079
29 | F33S | -0.972 ± 0.2
30 | F33A | -0.745 ± 0.061
31 | F33T | -0.826 ± 0.19
32 | F33M | -0.652 ± 0.08
33 | F33L | -0.65 ± 0.09
34 | F33D | -1.02 ± 0.35
35 | F33P | -0.871 ± 0.087
36 | F33Q | -0.817 ± 0.28
37 | F33V | -0.604 ± 0.075
38 | F33W | -0.166 ± 0.054
39 | F33I | -0.834 ± 0.34
40 | F33N | -0.499 ± 0.43
41 | F33C | -0.899 ± 0.29
42 | F33K | -0.715 ± 0.21
43 | F33H | -0.212 ± 0.26
44 | A38T | 0.188 ± 0.18
45 | A38E | -0.126 ± 0.092
46 | A38P | 0.014 ± 0.054
47 | A38D | -0.276 ± 0.08
48 | A38V | -0.123 ± 0.047

Row | Variant | abundance fitness
49 | A38Q | -0.15 ± 0.11
50 | A38C | -0.336 ± 0.1
51 | A38K | -0.297 ± 0.1
52 | A38R | -0.575 ± 0.075
53 | A38W | 0.013 ± 0.068
54 | A38H | -0.413 ± 0.19
55 | A38F | -0.334 ± 0.16
56 | A38L | -0.372 ± 0.08
57 | A38G | -0.371 ± 0.044
58 | A38S | -0.204 ± 0.054
59 | T37N | -0.614 ± 0.16
60 | T37K | -0.789 ± 0.12
61 | T37P | -0.404 ± 0.12
62 | T37D | -0.247 ± 0.082
63 | T37C | -0.724 ± 0.14
64 | T37Y | -0.967 ± 0.41
65 | T37F | -0.629 ± 0.15
66 | T37M | -0.974 ± 0.27
67 | T37L | -0.256 ± 0.054
68 | T37G | -0.668 ± 0.063
69 | T37Q | -0.903 ± 0.26
70 | T37R | -0.999 ± 0.093
71 | T37I | -0.689 ± 0.17
72 | T37V | -0.461 ± 0.085

Row | Variant | abundance fitness
73 | V39T | 0.135 ± 0.06
74 | V39G | -0.005 ± 0.054
75 | V39S | 0.057 ± 0.049
76 | V39R | 0.032 ± 0.061
77 | V39L | -0.154 ± 0.055
78 | V39Y | -0.015 ± 0.11
79 | V39H | -0.442 ± 0.23
80 | V39P | 0.059 ± 0.12
81 | V39M | 0.1 ± 0.1
82 | V39E | 0.008 ± 0.07
83 | V39F | -0.274 ± 0.08
84 | V39A | 0.091 ± 0.087
85 | V39Q | 0.001 ± 0.087
86 | V39C | 0.203 ± 0.086
87 | V39I | -0.075 ± 0.13
88 | V39N | 0.253 ± 0.089
89 | R44M | -0.234 ± 0.076
90 | R44K | -0.124 ± 0.049
91 | R44P | -0.863 ± 0.08
92 | R44H | 0.125 ± 0.045
93 | R44C | -0.214 ± 0.054
94 | R44V | -0.325 ± 0.055
95 | R44W | -0.397 ± 0.084
96 | R44D | -1.03 ± 0.19

Row | Variant | abundance fitness
97 | R44I | -0.498 ± 0.081
98 | R44F | -0.185 ± 0.048
99 | R44A | -0.236 ± 0.048
100 | R44N | -0.662 ± 0.067
101 | R44L | -0.22 ± 0.04
102 | R44Q | -0.079 ± 0.051
103 | R44S | -0.508 ± 0.045
104 | R44E | -0.59 ± 0.093
105 | R44Y | -0.218 ± 0.062
106 | R44G | -0.466 ± 0.058
107 | S28G | -0.171 ± 0.085
108 | S28I | 0.196 ± 0.14
109 | S28T | 0.038 ± 0.14
110 | S28F | -0.098 ± 0.11
111 | S28V | 0.121 ± 0.076
112 | S28N | 0.163 ± 0.14
113 | S28H | 0.101 ± 0.23
114 | S28P | -0.726 ± 0.31
115 | S28D | -0.887 ± 0.42
116 | S28W | 0.036 ± 0.095
117 | S28A | 0.142 ± 0.097
118 | S28C | -0.17 ± 0.12
119 | S28Q | 0.11 ± 0.13
120 | S28K | 0.114 ± 0.068

Row | Variant | abundance fitness
121 | S28Y | -0.458 ± 0.3
122 | S28M | -0.568 ± 0.26
123 | K29H | -0.042 ± 0.23
124 | K29I | -0.221 ± 0.1
125 | K29W | -0.54 ± 0.13
126 | K29S | -0.082 ± 0.053
127 | K29D | -0.188 ± 0.15
128 | K29Y | -0.116 ± 0.16
129 | K29P | -0.626 ± 0.23
130 | K29N | 0.205 ± 0.45
131 | K29R | -0.281 ± 0.088
132 | K29L | -0.129 ± 0.076
133 | K29T | -0.051 ± 0.12
134 | K29M | -0.091 ± 0.091
135 | K29A | -0.256 ± 0.11
136 | K29C | 0.162 ± 0.13
137 | K29V | -0.066 ± 0.08
138 | K29G | -0.364 ± 0.051
139 | R36I | -0.685 ± 0.33
140 | R36S | -0.654 ± 0.086
141 | R36G | -0.816 ± 0.051
142 | R36H | -0.649 ± 0.28
143 | R36Q | -0.897 ± 0.28
144 | R36M | -0.693 ± 0.24

Row | Variant | abundance fitness
145 | R36C | -0.495 ± 0.12
146 | R36Y | -0.614 ± 0.25
147 | R36A | -0.367 ± 0.069
148 | R36K | 0.228 ± 0.098
149 | R36V | -0.4 ± 0.051
150 | R36T | -0.853 ± 0.25
151 | R36W | -0.95 ± 0.14
152 | N35P | -1.09 ± 0.34
153 | N35I | -0.758 ± 0.14
154 | N35Y | -0.375 ± 0.15
155 | N35V | -0.643 ± 0.06
156 | N35Q | 0.215 ± 0.12
157 | N35C | -0.71 ± 0.18
158 | N35W | -0.588 ± 0.13
159 | N35H | -0.277 ± 0.35
160 | N35M | -0.555 ± 0.12
161 | N35T | -0.476 ± 0.082
162 | N35K | -0.222 ± 0.21
163 | N35G | -0.259 ± 0.057
164 | N35R | -0.317 ± 0.083
165 | N35S | -0.27 ± 0.041
166 | N35F | -1.14 ± 0.26
167 | N35E | -0.185 ± 0.11
